Here are results for four proteins from article PMC6921046, “Functional Characterization and Structural Analysis of NADH Oxidase Mutants from Thermus thermophilus HB27: Role of Residues 166, 174, and 194 in the Catalytic Properties and Thermostability” (Microorganisms, 2019).

Test in all cases: purified protein
Substrate in data set [1]: Cc1cc2nc3c(=O)[nH]c(=O)nc-3n(C[C@H](O)[C@H](O)[C@H](O)CO)c2cc1C
The note with it: 10 µM NADH, pH 7, 25 °C, exogenous flavin, varied: cofactor.

Substrate in data set [2]: Cc1cc2nc3c(=O)[nH]c(=O)nc-3n(C[C@H](O)[C@H](O)[C@H](O)COP(=O)(O)O)c2cc1C
It counts as biochemical, Thermus thermophilus. The note with it: 10 µM NADH, pH 7, 25 °C, exogenous flavin, varied: cofactor.

Substrate in data set [3]: Cc1cc2nc3c(=O)[nH]c(=O)nc-3n(C[C@H](O)[C@H](O)[C@H](O)COP(=O)(O)OP(=O)(O)OC[C@H]3O[C@@H](n4cnc5c(N)ncnc54)[C@H](O)[C@@H]3O)c2cc1C
It counts as biochemical, Thermus thermophilus. Particulars: 10 µM NADH, pH 7, 25 °C, exogenous flavin, varied: cofactor.

Substrate in data set [4]: NC(=O)C1=CN([C@@H]2O[C@H](COP(=O)(O)OP(=O)(O)OC[C@H]3O[C@@H](n4cnc5c(N)ncnc54)[C@H](O)[C@@H]3O)[C@@H](O)[C@H]2O)C=CC1
It counts as biochemical, Thermus thermophilus. The note with it: 50 µM FAD, pH 7, 25 °C.

Where [5] appears, read: authors' cloned wild type, apparent.
[6] abbreviates: authors' cloned wild type K166/H174/Y194, apparent.

Changes are numbered by the printed parent chain. Names and notes keep the numbering of the source.

B1: Tt27-NOX (Thermus thermophilus HB27; H194Y) (protein)
chain: MEATLPVLDAKTAALKRRSIRRYRKDPVPEGLLREILEAALRAPSAWNLQPWRIVVVRDPATKRALREAAFGQAHVEEAPVVLVLYADLEDALAHLDEVIHPGVQGERREAQKQAIQRAFAAMGQEARKAWASGQSYILLGYLLLLLEAYGLGSVPMLGFDPERVKAILGLPSHAAIPALVALGYPAEEGYPSYRLPLERVVLWR
notes: Recombinant, pET22b, E. coli BL21(DE3), heat shock plus PEI-Ag/DS-Ag; homodimer, ~27 kDa monomer
Regarding B1, the Km was 68.7 ± 3.4 µM in “purified protein [1]” (K166/H174/H194, apparent); 69.7 ± 3.5 µM in the data set “purified protein [1]” (setting [5]); 45 ± 2.3 µM in “purified protein [2]” (K166/H174/H194, apparent); 43 ± 2.2 µM in “purified protein [2]” (setting [5]); 46 ± 2.3 µM in the data set “purified protein [3]” (K166/H174/H194, apparent); 34 ± 1.7 µM in the data set “purified protein [3]” (setting [5]). For the same protein, the Km was determined as 1.3 ± 0.06 µM in “purified protein [4]” (K166/H174/H194, apparent) and 1.6 ± 0.1 µM in “purified protein [4]” (setting [6]). The kcat was 27.2 ± 1.4 s⁻¹ in “purified protein [4]” (K166/H174/H194, apparent) and 23.3 ± 1.2 s⁻¹ in “purified protein [4]” (setting [6]). The kcat/Km in the data set “purified protein [4]” (K166/H174/H194, apparent) was 2.1e+07 ± 1.1e+06 M⁻¹ s⁻¹; in the data set “purified protein [4]” (setting [6]), 1.46e+07 ± 70000 M⁻¹ s⁻¹.

B2: Tt27-NOX (Thermus thermophilus HB27; H174R/H194Y) (protein)
chain: B1 chain with H174R
notes: as for B1
With B2, the Km turned out to be 60 ± 3 µM in “purified protein [1]” (K166/R174/Y194, apparent); 15 ± 0.8 µM in “purified protein [2]” (K166/R174/Y194, apparent); 127 ± 6.4 µM in “purified protein [3]” (K166/R174/Y194, apparent); 1.9 ± 0.1 µM in the data set “purified protein [4]” (K166/R174/Y194, apparent). The kcat in the data set “purified protein [4]” (K166/R174/Y194, apparent) worked out at 8.6 ± 0.4 s⁻¹. For the same protein, the kcat/Km in “purified protein [4]” (K166/R174/Y194, apparent) turned out to be 4.5e+06 ± 220000 M⁻¹ s⁻¹.

B3: R166/R174/H194 variant (Tt8-NOX variant) (Thermus thermophilus HB8; H174R) (protein)
chain: B1 chain with K166R, H174R, Y194H
notes: pET22b, E. coli BL21(DE3); homodimer, ~27 kDa monomer
As for B3, the Km is on record as 50.8 ± 2.6 µM in the data set “purified protein [1]” (R166/R174/H194, apparent); 23.6 ± 1 µM in the data set “purified protein [2]” (R166/R174/H194, apparent); 31.9 ± 1.4 µM in the data set “purified protein [3]” (R166/R174/H194, apparent); 1.8 ± 0.1 µM in “purified protein [4]” (R166/R174/H194, apparent). Besides, the kcat in the data set “purified protein [4]” (R166/R174/H194, apparent) was 15.1 ± 0.8 s⁻¹. In the data set “purified protein [4]” (R166/R174/H194, apparent), the specificity constant (kcat/Km) was determined as 8.4e+06 ± 420000 M⁻¹ s⁻¹.

B4: Tt27-NOX (Thermus thermophilus HB27; H194Y/K166R) (protein)
chain: B1 chain with K166R
notes: as for B1
On to B4, for which the Km in “purified protein [2]” (R166/H174/Y194, apparent) was determined as 27 ± 1.4 µM; in the data set “purified protein [3]” (R166/H174/Y194, apparent), 30 ± 1.5 µM.

The term Km denotes the substrate concentration at which the rate is half of its maximum. One may read the kcat as the number of substrate molecules converted per active site and unit of time at saturation. A word on the kcat/Km: it is the second-order rate constant that governs catalysis at low substrate concentration.
